Laboratory results taken from patent US20210332109A1.

What was measured:
[1] = target: VZV gE recombinant protein (CalBioreagents, Inc.) (varicella-zoster virus) (UniProt P09259); assay: immunochromatographic sandwich; row antibody gold-labelled, Antibody 18 on the detection line
[2] = target: VZV gE recombinant protein (CalBioreagents, Inc.) (varicella-zoster virus) (UniProt P09259); assay: immunochromatographic sandwich; row antibody gold-labelled, Antibody 4 on the detection line
[3] = target: VZV gE recombinant protein (CalBioreagents, Inc.) (varicella-zoster virus) (UniProt P09259); assay: immunochromatographic sandwich; row antibody gold-labelled, Antibody 3 on the detection line
[4] = target: VZV gE recombinant protein (CalBioreagents, Inc.) (varicella-zoster virus) (UniProt P09259); assay: immunochromatographic sandwich; row antibody gold-labelled, Antibody 5 on the detection line
[5] = target: VZV gE recombinant protein (CalBioreagents, Inc.) (varicella-zoster virus) (UniProt P09259); assay: immunochromatographic sandwich; row antibody gold-labelled, Antibody 9 on the detection line
[6] = target: VZV gE recombinant protein (CalBioreagents, Inc.) (varicella-zoster virus) (UniProt P09259); assay: immunochromatographic sandwich; row antibody gold-labelled, Antibody 2 on the detection line
[7] = target: the antibody (of the immunochromatographic analysis device used in Test Example 8); assay: competitive inhibition in the immunochromatographic sandwich on VZV gE recombinant protein, P3 added; row 5 ng/mL
[8] = target: the antibody (of the immunochromatographic analysis device used in Test Example 8); assay: competitive inhibition in the immunochromatographic sandwich on VZV gE recombinant protein, P3 added; row 0.5 ng/mL
[9] = target: the antibody (of the immunochromatographic analysis device used in Test Example 8); assay: competitive inhibition in the immunochromatographic sandwich on VZV gE recombinant protein, P4 added; row 0.5 ng/mL
[10] = target: the antibody (of the immunochromatographic analysis device used in Test Example 8); assay: competitive inhibition in the immunochromatographic sandwich on VZV gE recombinant protein, P4 added; row 5 ng/mL
[11] = target: the antibody (of the immunochromatographic analysis device used in Test Example 8); assay: competitive inhibition in the immunochromatographic sandwich on VZV gE recombinant protein, P2 added; row 5 ng/mL
[12] = target: the antibody (of the immunochromatographic analysis device used in Test Example 8); assay: competitive inhibition in the immunochromatographic sandwich on VZV gE recombinant protein, P2 added; row 0.5 ng/mL
[13] = target: the antibody (of the immunochromatographic analysis device used in Test Example 8); assay: competitive inhibition in the immunochromatographic sandwich on VZV gE recombinant protein, P1 added; row 5 ng/mL
[14] = target: the antibody (of the immunochromatographic analysis device used in Test Example 8); assay: competitive inhibition in the immunochromatographic sandwich on VZV gE recombinant protein, P1 added; row 0.5 ng/mL

VZV gE recombinant protein (CalBioreagents, Inc.) (varicella-zoster virus), sequence (P09259 31-538 limits assumed): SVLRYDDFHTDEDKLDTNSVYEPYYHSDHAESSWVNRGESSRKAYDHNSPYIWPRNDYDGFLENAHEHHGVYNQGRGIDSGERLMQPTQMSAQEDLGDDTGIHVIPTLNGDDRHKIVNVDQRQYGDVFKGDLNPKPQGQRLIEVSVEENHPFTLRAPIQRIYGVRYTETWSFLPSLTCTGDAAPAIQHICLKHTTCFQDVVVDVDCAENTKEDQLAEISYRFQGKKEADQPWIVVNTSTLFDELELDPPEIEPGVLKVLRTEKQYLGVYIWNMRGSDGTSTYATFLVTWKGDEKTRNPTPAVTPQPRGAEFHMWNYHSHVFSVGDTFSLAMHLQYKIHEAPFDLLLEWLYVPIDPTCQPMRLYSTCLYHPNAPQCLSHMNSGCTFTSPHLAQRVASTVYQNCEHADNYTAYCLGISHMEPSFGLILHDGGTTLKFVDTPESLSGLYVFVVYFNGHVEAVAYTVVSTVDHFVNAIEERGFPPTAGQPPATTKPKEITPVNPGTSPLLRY

B1: Antibody 9 (antibody, V domains shown)
VH: EVQLEESGPELVKPGASVKIPCKASGYTFTDYNMDWVKQNHGKSLEWIGEINPENGGTIYNQTFKGKATLTVDKSSSTAYMELRSLTSEDTAVYYCARSPWFTYWGQGTLVTVSA
VL: DIVLTQTTASLSMAIGEIVTIRCITSTDIGDDMNWYQQKPGEPPKFLISEGNTLRPGVPSRFSSSGYGTDFVFTVENILSEDVADYYCLQSDNLPHVRLGDKVGNK
[1]
  color development intensity: 218
[2]
  color development intensity: 5
[3]
  color development intensity: 53
[4]
  color development intensity: 52
[5]
  color development intensity: 29
[6]
  color development intensity: 39

B2: Peptide 3 (peptide fragment composed of the amino acid sequence at positions 62 to 81 in the amino acid sequence of SEQ ID NO: 1) (peptide)
peptide: SSWVNRGESSRKAYDHNSPY
[7]
  color development intensity: 677 mAbs
[8]
  color development intensity: 128 mAbs

B3: Peptide 4 (peptide fragment composed of the amino acid sequence at positions 69 to 88 in the amino acid sequence of SEQ ID NO: 1) (peptide)
peptide: ESSRKAYDHNSPYIWPRNDY
[9]
  color development intensity: 149 mAbs
[10]
  color development intensity: 596 mAbs

B4: Peptide 2 (peptide fragment composed of the amino acid sequence at positions 54 to 72 in the amino acid sequence of SEQ ID NO: 1) (peptide)
peptide: YYHSDHAESSWVNRGESSR
[11]
  color development intensity: 697 mAbs
[12]
  color development intensity: 127 mAbs

B5: Peptide 1 (peptide fragment composed of the amino acid sequence at positions 48 to 67 in the amino acid sequence of SEQ ID NO: 1) (peptide)
peptide: NSVYEPYYHSDHAESSWVNR
[13]
  color development intensity: 726 mAbs
[14]
  color development intensity: 136 mAbs
